Legend:
[1] = system: peptide #14 (PKCα pseudosubstrate), alanine-containing
[2] = system: peptide #11 (Optimized PKCβ Sub.), alanine-substituted, in PKCα FRET sensor
[3] = system: peptide #14, aspartic acid-containing (phosphomimetic)

human PKCα catalytic domain
ATP turnover of the catalytic domain for serine-containing peptide #14 with equimolar competitor peptide [1]: the alanine-substituted peptide was significantly better at inhibiting catalytic activity
basal kinase activity of the sensor (10 nm vs 30 nm ER/K linker) for the same substrate peptide [1]: the sensor with the 30 nm linker had significantly higher activity than the 10 nm linker for the same substrate peptide
kinase activity of the 10 nm peptide FRET sensor for the same substrate [2]: the higher affinity peptide sensor (#11) had a much lower activity than the lower affinity peptide sensor (#8)
ATP turnover of the catalytic domain for serine-containing peptide #14 with equimolar competitor peptide [3]: the alanine-substituted peptide was significantly better at inhibiting catalytic activity
